{
  "source": "FireProtDB (doi:10.1006/abbi.1998.1072)",
  "proteins": {"B1": {"name": "Inorganic pyrophosphatase wild type, P38576 (protein)", "chain": "MANLKSLPVGDKAPEVVHMVIEVPRGSGNKYEYDPDLGAIKLDRVLPGAQFYPGDYGFIPSTLAEDGDPLDGLVLSTYPLLPGVVVEVRVVGLLLMEDEKGGDAKVIGVVAEDQRLDHIQDIGDVPEGVKQEIQHFFETYKALEAKKGKWVKVTGWRDRKAALEEVRACIARYKG"}, "B2": {"name": "Inorganic pyrophosphatase wild type, P0A7A9 (protein)", "chain": "MSLLNVPAGKDLPEDIYVVIEIPANADPIKYEIDKESGALFVDRFMSTAMFYPCNYGYINHTLSLDGDPVDVLVPTPYPLQPGSVIRCRPVGVLKMTDEAGEDAKLVAVPHSKLSKEYDHIKDVNDLPELLKAQIAHFFEHYKDLEKGKWVKVEGWENAEAAKAEIVASFERAKNK"}, "B3": {"name": "Inorganic pyrophosphatase wild type, P50308 (protein)", "chain": "MKLSPGKNAPDVVNVLVEIPQGSNIKYEYDDEEGVIKVDRVLYTSMNYPFNYGFIPGTLEEDGDPLDVLVITNYQLYPGSVIEVRPIGILYMKDEEGEDAKIVAVPKDKTDPSFSNIKDINDLPQATKNKIVHFFEHYKELEPGKYVKISGWGSATEAKNRIQLAIKRVSGGQ"}},
  "details": "pH 7, reversible: no, whole UniProt chain shown; for denaturant m value / denaturant midpoint (higher = more stable): GdnHCl, Tris-HCl 50 mM; for Tm: Thermal, HEPES 20 mM",
  "key": {"[1]": {"details": "Thermus thermophilus (strain ATCC 27634 / DSM 579 / HB8), 25 °C, CD"}, "[2]": {"details": "Thermus thermophilus (strain ATCC 27634 / DSM 579 / HB8), 25 °C, Fluorescence"}, "[3]": {"details": "Escherichia coli (strain K12), 25 °C, CD"}, "[4]": {"details": "Escherichia coli (strain K12), 25 °C, Fluorescence"}, "[5]": {"details": "Sulfolobus acidocaldarius (strain ATCC 33909 / DSM 639 / JCM 8929 / NBRC 15157 / NCIMB 11770), 25 °C, CD"}, "[6]": {"details": "Sulfolobus acidocaldarius (strain ATCC 33909 / DSM 639 / JCM 8929 / NBRC 15157 / NCIMB 11770), 25 °C, Fluorescence"}, "[7]": {"details": "Sulfolobus acidocaldarius (strain ATCC 33909 / DSM 639 / JCM 8929 / NBRC 15157 / NCIMB 11770), 50 °C, CD"}},
  "note": "Where “and” joins values, the source holds several entries; their conditions need not be identical. Identical values can stand only once.",
  "data": [
    {"protein": "B1", "values": [
      {"measurement": "denaturant m value", "setting": "[1]", "result": 5.74, "unit": "kcal/mol/M"},
      {"measurement": "denaturant midpoint (higher = more stable)", "setting": "[1]", "result": 4.7, "unit": "M"},
      {"measurement": "denaturant m value", "setting": "[2]", "result": 5.74, "unit": "kcal/mol/M"},
      {"measurement": "denaturant midpoint (higher = more stable)", "setting": "[2]", "result": "5.1 M and 4.7 M"},
      {"measurement": "Tm", "setting": "Thermus thermophilus (strain ATCC 27634 / DSM 579 / HB8), CD, EDTA 5 mM", "result": 86, "unit": "°C"},
      {"measurement": "Tm", "setting": "Thermus thermophilus (strain ATCC 27634 / DSM 579 / HB8), CD", "result": 96, "unit": "°C"}
    ]},
    {"protein": "B2", "values": [
      {"measurement": "denaturant m value", "setting": "[3]", "result": 3.35, "unit": "kcal/mol/M"},
      {"measurement": "denaturant midpoint (higher = more stable)", "setting": "[3]", "result": 4.9, "unit": "M"},
      {"measurement": "denaturant m value", "setting": "[4]", "result": "3.35 kcal/mol/M and 2.63 kcal/mol/M"},
      {"measurement": "denaturant midpoint (higher = more stable)", "setting": "[4]", "result": "4.9 M and 4.5 M"},
      {"measurement": "Tm", "setting": "Escherichia coli (strain K12), CD, EDTA 5 mM", "result": 58, "unit": "°C"}
    ]},
    {"protein": "B3", "values": [
      {"measurement": "denaturant m value", "setting": "[5]", "result": 5.5, "unit": "kcal/mol/M"},
      {"measurement": "denaturant midpoint (higher = more stable)", "setting": "[5]", "result": 3.1, "unit": "M"},
      {"measurement": "denaturant m value", "setting": "[6]", "result": "8.13 kcal/mol/M and 6.93 kcal/mol/M and 5.98 kcal/mol/M"},
      {"measurement": "denaturant midpoint (higher = more stable)", "setting": "[6]", "result": "3.2 M and 2.9 M and 3.1 M"},
      {"measurement": "denaturant m value", "setting": "[7]", "result": "6.93 kcal/mol/M and 5.74 kcal/mol/M"},
      {"measurement": "denaturant midpoint (higher = more stable)", "setting": "[7]", "result": "2.8 M and 2.9 M"}
    ]}
  ]
}
